Consider two molecules from article PMC4000066 (Cell, 2014).

The target of assay [1] is ASC^FL (from His-MBP-ASC^FL after removal of His-MBP by TEV) (UniProt Q9ULZ3 1-195). Nature of the assay: pull-down.
Assay [2] has as its target endogenous ASC of THP-1 cells (human (endogenous in THP-1), UniProt Q9ULZ3 1-195). Nature of the assay: co-IP.

ASC^FL (from His-MBP-ASC^FL after removal of His-MBP by TEV), sequence (Q9ULZ3 whole entry): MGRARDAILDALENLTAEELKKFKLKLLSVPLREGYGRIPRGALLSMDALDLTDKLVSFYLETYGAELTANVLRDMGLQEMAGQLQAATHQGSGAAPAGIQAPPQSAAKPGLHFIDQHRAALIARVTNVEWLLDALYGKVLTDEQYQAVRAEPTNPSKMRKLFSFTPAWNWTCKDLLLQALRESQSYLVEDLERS
endogenous ASC of THP-1 cells, sequence (Q9ULZ3 whole entry): as above

B1: His-GFP-caspase-1^CARD (domain or fragment, UniProt P29466 1-91, looked up)
chain: MADKVLKEKRKLFIRSMGEGTINGLLDELLQTRVLNKEEMEKVKRENATVMDKTRALIDSVIPKGAQACQICITYICEEDSYLAGTLGLSA
Consider B1, for which, in assay [1], the binding result was “binds”.

B2: endogenous caspase-1 of THP-1 cells (enzyme, human (endogenous in THP-1), UniProt P29466 1-404, looked up)
chain: MADKVLKEKRKLFIRSMGEGTINGLLDELLQTRVLNKEEMEKVKRENATVMDKTRALIDSVIPKGAQACQICITYICEEDSYLAGTLGLSADQTSGNYLNMQDSQGVLSSFPAPQAVQDNPAMPTSSGSEGNVKLCSLEEAQRIWKQKSAEIYPIMDKSSRTRLALIICNEEFDSIPRRTGAEVDITGMTMLLQNLGYSVDVKKNLTASDMTTELEAFAHRPEHKTSDSTFLVFMSHGIREGICGKKHSEQVPDILQLNAIFNMLNTKNCPSLKDKPKVIIIQACRGDSPGVVWFKDSVGVSGNLSLPTTEEFEDDAIKKAHIEKDFIAFCSSTPDNVSWRHPTMGSVFIGRLIEHMQEYACSCDVEEIFRKVRFSFEQPDGRAQMPTTERVTLTRCFYLFPGH
On to B2, for which, in assay [2], the “stoichiometry N” value is ~3.5 fold (caspase-1 to ASC).

As usually defined, the stoichiometry N is the number of molecules, sites or subunits per partner or assembly.
